T1: Pep-3, NH2-LEEKKGNYVVTDHG-OH (human)
T1 construct: Free peptide used in Biacore and KinExA (MW 1590 Da)
T1 peptide: H-LEEKKGNYVVTDHG-OH


Assays:
[1] = target: EGFrVIII antigen (ELISA antigen of Examples 15, 17 and 21; form not stated) (human, UniProt P00533 298-645, limits assumed); test: binding of variant antibody to EGFRvIII antigen
[2] = target: T1, Pep-3, NH2-LEEKKGNYVVTDHG-OH; test: Biacore 2000 SPR, steady-state (equilibrium) binding model, pep-3 analyte
Source text: The first step in these examples involved the immobilization of 5,600 resonance units (RU) to 8,000 RU of each mAb tested to one flow cell (Fc) of a CM5 sensor chip using standard EDC/NHS coupling chemistry. […] Three CM5 sensor chips were used in total to immobilize all mutant mAbs with a unique mAb immobilized to each flow cell. […] Biacore 2000 optical biosensors were used for all studies.

Row | Binder | binding result [1] | Kd [2] [µM]
1 | mAb 131 variant, light chain V99F (antibody, V domains shown, also called V99 changed to F) VH: QVQLVESGGGVVQSGRSLRLSCAASGFTFRNYGMHWVRQAPGKGLEWVAVIWYDGSDKYYADSVRGRFTISRDNSKNTLYLQMNSLRAEDTAVYYCARDGYDILTGNPRDFDYWGQGTLVTVSS VL: DTVMTQTPLSSHVTLGQPASISCRSSQSLVHSDGNTYLSWLQQRPGQPPRLLIYRISRRFSGVPDRFSGSGAGTDFTLEISRVEAEDVGVYYCMQSTHFPWTFGQGTKVEIK | no binding | –
2 | 13.1.2 variant L99N-4.1 (antibody, V domains shown, also called Leu99Asn; 99Asn) VH: QVQLVESGGGVVQPGRSLRLSCAASGFTFSSYGMHWVRQAPGKGLEWVAVIWYDGSNKYYVDSVKGRFTISRDNSKNTLYLQMNSLRAEDTAVYYCARDGWQQLAPFDYWGQGTLVTVSS VL: not shown | – | 1.4

— patent US20050059087A1 (Amgen, published 2005)
